Reference: article PMC7181697

Assays:
[1] = molecular target: REV7^W171A-SHLD3(1–82) (human) (UniProt Q9UI95); test: ITC; method not named in the sentence (Supplementary Fig. 7e, f); ITC is the only method for affinities that the methods describe
[2] = molecular target: REV7^Y63A-SHLD3(1–82) (human) (UniProt Q9UI95); test: as above
Chain of REV7^Y63A-SHLD3(1–82) (human) (Q9UI95 whole entry Y63A, chain 1 of 2): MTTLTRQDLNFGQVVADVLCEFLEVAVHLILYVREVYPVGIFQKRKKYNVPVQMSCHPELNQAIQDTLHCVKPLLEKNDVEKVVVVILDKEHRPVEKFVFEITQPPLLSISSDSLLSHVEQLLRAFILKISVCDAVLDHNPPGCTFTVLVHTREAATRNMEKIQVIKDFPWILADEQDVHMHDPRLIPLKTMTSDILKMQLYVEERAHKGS
Chain of REV7^Y63A-SHLD3(1–82) (human) (Q6ZNX1 1-82, chain 2 of 2, further chain): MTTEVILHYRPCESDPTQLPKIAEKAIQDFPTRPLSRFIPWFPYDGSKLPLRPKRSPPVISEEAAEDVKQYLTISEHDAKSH

Chain of REV7^W171A-SHLD3(1–82) (human) (Q9UI95 whole entry W171A, chain 1 of 2): as the sequence (Q9UI95 whole entry Y63A, chain 1 of 2) above, with A63Y, W171A counted along it
Chain of REV7^W171A-SHLD3(1–82) (human) (Q6ZNX1 1-82, chain 2 of 2, further chain): as the sequence (Q6ZNX1 1-82, chain 2 of 2, further chain) above

Kd [1]: 1.1 µM
Kd [2]: 37 µM
B1: MBP-REV3(1847–2021) (domain or fragment)
chain: MLTPTPDSSPRSTSSPSQSKNGSFTPRTANILKPLMSPPSREEIMATLLDHDLSETIYQEPFCSNPSDVPEKPREIGGRLLMVETRLANDLAEFEGDFSLEGLRLWKTAFSAMTQNPRPGSPLRSGQGVVNKGSSNSPKMVEDKKIVIMPCKCAPSRQLVQVWLQAKEEYERSKK
